Reference: paper PMC10820826 (The Journal of Biological Chemistry, 2023)
Where two headings read alike, the source gives them in different places.

T1: Mint1 PTB domain (residues 448-623) (human, UniProt Q02410 448-623)
T1 construct: human Mint1 PTB domain, residues 448-623; pGEX6P-2; source: E. coli Rosetta BL21 (DE3), purified (glutathione-Sepharose, Prescission protease, gel filtration)
T1 sequence (looked up): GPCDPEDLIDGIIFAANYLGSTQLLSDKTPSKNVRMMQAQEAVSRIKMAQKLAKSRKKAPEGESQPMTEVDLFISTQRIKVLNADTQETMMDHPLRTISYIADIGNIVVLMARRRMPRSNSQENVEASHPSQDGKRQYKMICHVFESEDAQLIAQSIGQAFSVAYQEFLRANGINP

B1: GST-Mint1 MID (residues 222-314) (domain or fragment)
chain: EAAAYRQEALGARLHHYDERSDGESDSPEKEAEFAPYPRMDSYEQEEDIDQIVAEVKQSMSSQSLDKAAEDMPEAEQDLERPPTPAGGRPDSP
notes: pGEX4T-2, codon optimised; The methods call 226-314 the MID; also called GST-Mint1 (222-314); source: E. coli Rosetta BL21 (DE3), purified (glutathione-Sepharose, gel filtration)
B2: Mint1_4 peptide (263-282) (peptide)
peptide: SYEQEEDIDQIVAEVKQSMS
notes: source: synthetic peptide, bought: Genscript
B3: Mint1_5 peptide (265-282) (peptide)
peptide: EQEEDIDQIVAEVKQSMS
notes: as for B2
B4: Mint1_6 peptide (267-282) (peptide)
peptide: EEDIDQIVAEVKQSMS
notes: as for B2
B5: Mint1_7 peptide (261-280) (peptide)
peptide: MDSYEQEEDIDQIVAEVKQS
notes: as for B2
B6: Mint1_2 peptide (257-286) (peptide)
peptide: PYPRMDSYEQEEDIDQIVAEVKQSMSSQSL
notes: human Mint1 residues 257-286; source: synthetic peptide, bought: Genscript
B7: Mint1_3 peptide (257-286 phosphomimic) (peptide)
peptide: PYPRMDEEEQEEDIDQIVAEVKQEMEEQEL
notes: human Mint1 residues 257-286 with phosphomimetic Glu; source: synthetic peptide, bought: Genscript
B8: GST-Mint1 (226-314) (MID) (domain or fragment, human, UniProt Q02410 226-314, looked up)
chain: YRQEALGARLHHYDERSDGESDSPEKEAEFAPYPRMDSYEQEEDIDQIVAEVKQSMSSQSLDKAAEDMPEAEQDLERPPTPAGGRPDSP
notes: human Mint1 (X11, APBA1) residues 226-314, the MID by the methods; it could also be 222-314; also called GST-Mint1 MID; source: E. coli Rosetta BL21 (DE3), purified (glutathione-Sepharose, Superdex 75)
B9: Mint1 (261-282) synthetic peptide (peptide)
peptide: MDSYEQEEDIDQIVAEVKQSMS
notes: also called Mint1_1; Mint1 AHM peptide; source: synthetic peptide, bought: Genscript
B10: Mint1_1c peptide (266-282) (peptide)
peptide: QEEDIDQIVAEVKQSMS
notes: as for B2
B11: TJAP1 (9-22) peptide (peptide)
peptide: KPYRKAPPEHRELR
notes: human tight junction-associated protein 1 residues 9-22; also called TJAP1 peptide; PILT; source: synthetic peptide (solid phase synthesis in-house, reverse-phase HPLC)
B12: APP (750-769) peptide (peptide)
peptide: SKMQQNGYENPTYKFFEQMQ
notes: human amyloid precursor protein residues 750-769; also called APP NPxY peptide; source: synthetic peptide (solid phase synthesis in-house, reverse-phase HPLC)

Legend:
Conditions in all cases: both partners purified
Munc18-1-His [1] = molecular target: T2, Munc18-1-His (rat, UniProt P61765 1-594)
T2 construct: Munc18-1 (STXBP1); also called Munc18a; STXBP1; source: E. coli Rosetta BL21 (DE3), purified to homogeneity as described by Hu et al
T2 sequence (P61765 whole entry): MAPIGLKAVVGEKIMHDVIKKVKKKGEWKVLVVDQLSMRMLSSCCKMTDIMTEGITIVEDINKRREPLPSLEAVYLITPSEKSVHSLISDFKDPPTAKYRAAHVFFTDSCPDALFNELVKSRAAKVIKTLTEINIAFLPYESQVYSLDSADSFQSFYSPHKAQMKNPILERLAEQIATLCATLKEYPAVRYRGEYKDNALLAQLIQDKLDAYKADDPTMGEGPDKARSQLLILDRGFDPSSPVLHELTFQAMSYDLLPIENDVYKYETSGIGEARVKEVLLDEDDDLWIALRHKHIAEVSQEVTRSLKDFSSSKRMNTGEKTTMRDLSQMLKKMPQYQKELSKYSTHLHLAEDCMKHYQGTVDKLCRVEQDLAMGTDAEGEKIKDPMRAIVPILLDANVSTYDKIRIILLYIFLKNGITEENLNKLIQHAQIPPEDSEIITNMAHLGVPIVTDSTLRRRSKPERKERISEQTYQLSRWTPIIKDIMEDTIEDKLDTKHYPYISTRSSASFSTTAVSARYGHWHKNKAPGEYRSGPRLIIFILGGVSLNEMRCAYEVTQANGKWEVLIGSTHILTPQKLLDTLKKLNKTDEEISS

Munc18-1-His [2] = molecular target: T2, Munc18-1-His; remark: listed apart in the source
Munc18-1 + Sx1a [3] = molecular target: T3, Munc18-1 + Sx1a (rat, UniProt P61765 1-594; P32851 1-261); assay: pull-down; GST-Mint1 MID as bait, Munc18-1 in the presence of Sx1a; Coomassie-stained gel
T3 construct: Munc18-1 (STXBP1), as m1; also called Munc18-1 in the presence of Sx1a; source: mixed from the purified E. coli proteins m1 and m32
T3 sequence (P61765 whole entry, chain 1 of 2): as the sequence (P61765 whole entry) above
T3 sequence (P32851 1-261, chain 2 of 2): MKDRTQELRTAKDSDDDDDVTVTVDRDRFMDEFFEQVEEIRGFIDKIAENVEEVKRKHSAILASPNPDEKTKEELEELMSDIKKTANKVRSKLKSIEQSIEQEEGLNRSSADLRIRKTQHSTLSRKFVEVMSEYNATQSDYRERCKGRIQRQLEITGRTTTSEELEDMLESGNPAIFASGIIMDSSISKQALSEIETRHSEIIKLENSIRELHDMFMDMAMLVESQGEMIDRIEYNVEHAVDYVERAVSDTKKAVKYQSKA

Munc18-1 + Sx1a [4] = molecular target: T3, Munc18-1 + Sx1a
Munc18-1-His [5] = molecular target: T2, Munc18-1-His; remark: listed apart in the source
[6] = molecular target: T4, Mint1 PTB + APP (750-769) (human, UniProt Q02410 448-623); assay: ITC; as a5, competition experiment with the other peptide (APP 750-769 or TJAP1 9-22) present with Mint1 PTB in the cell
T4 construct: human Mint1 PTB domain, residues 448-623, as m35; human amyloid precursor protein residues 750-769, as m36; source: mixed from purified m35 and the synthetic peptide m36

[7] = molecular target: T1, Mint1 PTB domain (residues 448-623); assay: ITC; 25 °C, 50 mM Hepes, 200 mM NaCl, 0.5 mM TCEP, 5% glycerol; 1 mM peptide titrated into 50 μM Mint1 PTB domain; 1:1 binding model
Mint1 PTB + TJAP1 (9-22) = molecular target: T5, Mint1 PTB + TJAP1 (9-22) (human, UniProt Q02410 448-623); assay: ITC; as a5, competition experiment with the other peptide (APP 750-769 or TJAP1 9-22) present with Mint1 PTB in the cell
T5 construct: human Mint1 PTB domain, residues 448-623, as m35; human tight junction-associated protein 1 residues 9-22, as m37; source: mixed from purified m35 and the synthetic peptide m37

Row | Binder | Kd (Munc18-1-His [2]) | dH (Munc18-1-His [2]) | stoichiometry N (Munc18-1-His [2]) | other results
1 | B1 |  |  |  | binding result (Munc18-1-His [1]): binds
2 | B2 | 12.9 µM | -2.3 kcal/mol | 1.3 | 
3 | B3 | 5.6 µM | -3.48 kcal/mol | 1.3 | 
4 | B4 | 4 µM | -1.29 kcal/mol | 1.2 | 
5 | B5 | 19.1 µM | -1.78 kcal/mol | 1 | 
6 | B6 | 26 µM | -4.21 kcal/mol | 1.3 | 
7 | B7 | 14 µM | -6.5 kcal/mol | 1.1 | 
8 | B8 |  |  |  | binding result (Munc18-1 + Sx1a [3]): binds; binding result (Munc18-1-His [1]): binds
9 | B9 |  | -8.8 kcal/mol | 0.8 | dH (Munc18-1 + Sx1a [4]): -8.9 kcal/mol; stoichiometry N (Munc18-1 + Sx1a [4]): 1; dH (Munc18-1-His [5]): -7.9 kcal/mol; stoichiometry N (Munc18-1-His [5]): 1
10 | B10 | 23.1 µM | -1.2 kcal/mol | 1 | 
11 | B11 |  |  |  | Kd [6]: 29.4 µM; dH [6]: -7.1 kcal/mol; stoichiometry N [6]: 1; Kd [7]: 20.9 µM; dH [7]: -8.9 kcal/mol; stoichiometry N [7]: 1
12 | B12 |  |  |  | Kd (Mint1 PTB + TJAP1 (9-22)): 0.58 µM; dH (Mint1 PTB + TJAP1 (9-22)): -11.8 kcal/mol; stoichiometry N (Mint1 PTB + TJAP1 (9-22)): 1; Kd [7]: 0.31 µM; dH [7]: -15.6 kcal/mol; stoichiometry N [7]: 1
